Measurements from PMC7327521 (Journal of Molecular Biology, 2020).
Square brackets hold non-standard residues; d marks the D form. Ends that are not written are not given here. pY = N[C@@H](Cc1ccc(OP(=O)(O)O)cc1)C(=O)O; pT = C[C@@H](OP(=O)(O)O)[C@H](N)C(=O)O; pS = N[C@@H](COP(=O)(O)O)C(=O)O

Target: T1, tandem SH2 domain of C. glabrata Spt6 (Spt6-tSH2) (C. glabrata, UniProt Q6FLB1 1250-1444)
T1 sequence (looked up): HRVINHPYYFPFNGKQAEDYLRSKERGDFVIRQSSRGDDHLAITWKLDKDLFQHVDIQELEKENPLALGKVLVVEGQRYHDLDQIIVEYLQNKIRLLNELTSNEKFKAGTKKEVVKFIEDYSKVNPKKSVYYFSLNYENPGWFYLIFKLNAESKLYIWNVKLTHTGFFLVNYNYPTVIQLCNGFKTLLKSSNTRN
Experiment: fluorescence polarisation

| Binder | Kd [µM] |
| --- | --- |
| {5,6‑FAM}-PSYSP[pT]SPSYSP[pT]SPS [(pT4-CTD)2] | 7.2 |
| {5,6‑FAM}-PS[pY]SPTSPS [(pY1-CTD)1] | 38.7 |
| {5,6‑FAM}-PS[pY][pS]PTSPS[pY][pS]PTSPS [(pY1pS2-CTD)2] | 0.3 |
| {5,6‑FAM}-PS[pY]SPT[pS]PS[pY]SPT[pS]PS [(pY1pS5-CTD)2] | 0.3 |
| DDDEDGYNPYTL [Nrd1 Interaction Motif (NIM) peptide from Trf4] | 3.3 |
| {5,6‑FAM}-PSYSPTSPS[pY]SPTSPS [PS(YSPTSPS)(pYSPTSPS)] | 36.8 |
| {5,6‑FAM}-PSY[pS]P[pT]SPSYSPTSPS [PS(YpSPpTSPS)(YSPTSPS)] | 5.7 |
| {5,6‑FAM}-PS[pY]SPTSPSYSPTSPS [PS(pYSPTSPS)(YSPTSPS)] | 45.4 |
